# From patent US20240182530A1
# What was measured:
# sfGFP-SpyTag003 Loop A [1] = assay: isopeptide bond formation, 5 µM each, PBS pH 7.5, 25 °C, SDS-PAGE densitometry
# [2] = molecular target: Gre2p-SpyTag003 Loop B (Saccharomyces cerevisiae) (UniProt Q12068); assay: as above
# sfGFP-SpyTag003 Loop A [3] = assay: isopeptide bond formation, SDS-PAGE densitometry; reference SpyTag003 as a terminal fusion with SpyCatcher003
# Sequence of UniProt Q12068 (Q12068 other isoform, or with tags, fused parts or gaps): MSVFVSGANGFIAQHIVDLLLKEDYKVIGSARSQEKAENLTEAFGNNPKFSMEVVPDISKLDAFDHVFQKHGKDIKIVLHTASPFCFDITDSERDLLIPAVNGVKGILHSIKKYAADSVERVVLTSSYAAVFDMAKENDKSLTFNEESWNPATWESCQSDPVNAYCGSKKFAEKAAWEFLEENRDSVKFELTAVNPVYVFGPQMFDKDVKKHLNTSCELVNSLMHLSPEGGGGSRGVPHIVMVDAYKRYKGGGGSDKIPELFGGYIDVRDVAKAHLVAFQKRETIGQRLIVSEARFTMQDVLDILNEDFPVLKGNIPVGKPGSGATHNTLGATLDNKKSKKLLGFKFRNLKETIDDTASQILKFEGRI
substance,measurement,setting,value
SpyCatcher003 (designed binder),second-order rate constant,sfGFP-SpyTag003 Loop A [1],87 M⁻¹ s⁻¹
same,second-order rate constant,[2],93 M⁻¹ s⁻¹
same,fold slower than SpyTag003 as a terminal fusion,sfGFP-SpyTag003 Loop A [3],6000 fold
